The nature of the data set: self-splicing fitness, log relative to wild type (ln ratio); higher = more splicing; Tetrahymena group I intron in knt gene, E. coli kanamycin selection, DiMSum; sequences stand for … in CUCUCU…GGAGGGAAAAGUUAUCAGGCAUGCACCUGGUAGCUAGUCUUUAAACCAAUAGAUUGCAUCGGUUUAAAAGGCAAGACCGUCAAAUUGCGGGAAAGGGGUCAACAGCCGUUCAGUACCAAGUCUCAGGGGAAACUUUGAGAUGGCCUUGCAAAGGGUAUGGUAAUAAGCUGACGGACAUGGUCCUAACCACGCAGCCAAGUCCUAAGUCAACAGAUCUUCUGUUGAUAUGGAUGCAGUUCACAGACUAAAUGUCGGUCGGGGAAGAUGUAUUCUUCUCAUAAGAUAUAGUCGGACCUCUCCUUAAUGGGAGCUAGCGGAUGAAGUGAUGCAACACUGGAGCCGCUGGGAACUAAUUUGUAUGCGAAAGUAUAUUGAUUAGUUUUGGAGUACUCGUGGUCG
In outline: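 Fitness was computed with DiMSum as the error-weighted combination of replicate fold changes, kanamycin versus none, each normalised to wild type. The library randomised all eight intron nucleotides of the P1ex region, with the intron placed in the knt kanamycin-resistance gene on pET-22b(+) in E. coli BL21(DE3). Six replicate transformations were grown overnight at 37°C or 30°C on LB agar with or without 25 μg/mL kanamycin, plus 100 μg/mL carbenicillin, 50 μM IPTG and 0.2% rhamnose. Pooled colonies were amplicon-sequenced on an Illumina HiSeq 2500.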

± gives the uncertainty stated by the source.

For the sequence CAAGAGCAAUAUUACGAGUA, under “37 °C”, the “self-splicing fitness (ln)” value is -1.56 ± 0.27. CAAGAGCAAUAUUACGAUCC: the “self-splicing fitness (ln)” value is, setting by setting: (30 °C) -2.49 ± 0.42; (37 °C) -2.15 ± 0.5. In the same order, the values of CAAGAGCAAUAUUACGAUGC are -2.54 ± 0.32 and -2.31 ± 0.39. In the same order, the values of CAAGAGCAAUAUUACGAUUA are -1.92 ± 0.19 and -0.907 ± 0.21. As to CAAGAGCAAUAUUACGCACC, for the setting “30 °C”, the “self-splicing fitness (ln)” value was -3.75 ± 0.35. As to CAAGAGCAAUAUUACGCAGG, the “self-splicing fitness (ln)” value was -2.62 ± 0.13 (30 °C) and -2 ± 0.17 (37 °C). Consider CAAGAGCAAUAUUACGCAGU, for which, where the note is “30 °C”, the “self-splicing fitness (ln)” value was -4 ± 0.46.

As to CAAGAGCAAUAUUACGCCGA, the “self-splicing fitness (ln)” value is -2.4 ± 0.23 (30 °C) and -1.04 ± 0.32 (37 °C). The corresponding values for CAAGAGCAAUAUUACGCUCU are -3.49 ± 0.32 and -1.86 ± 0.27.

Turning to CAAGAGCAAUAUUACGCUGC, the “self-splicing fitness (ln)” value is, setting by setting: (30 °C) -3.4 ± 0.41; (37 °C) -2.01 ± 0.24. The corresponding values for CAAGAGCAAUAUUACGGAUG are -2.89 ± 0.1 and -2.04 ± 0.12. In the same order, the values of CAAGAGCAAUAUUACGUCAA are -3.43 ± 0.43 and -2.73 ± 0.25.

On to CAAGAGCAAUAUUACGUCGG, for which the “self-splicing fitness (ln)” value runs as follows: (30 °C) -1.4 ± 0.087; (37 °C) -1.37 ± 0.11.

As for CAAGAGCAAUAUUACGUGAG, the “self-splicing fitness (ln)” value (30 °C) is -1.44 ± 0.087 and the “self-splicing fitness (ln)” value (37 °C) was -0.683 ± 0.11. For the sequence CAAGAGCAAUAUUACGUGCU, the “self-splicing fitness (ln)” value is -4.39 ± 0.31 (30 °C) and -2.36 ± 0.17 (37 °C). For CAAUAGCAAUAUUACGACAU, the “self-splicing fitness (ln)” value by setting is: (30 °C) -3.694 ± 0.024; (37 °C) -2.38 ± 0.037. In the same order, the values of CAAUAGCAAUAUUACGAUUA are -1.2 ± 0.12 and -0.352 ± 0.11. Regarding CAAUAGCAAUAUUACGCCAA, the “self-splicing fitness (ln)” value was -2.96 ± 0.22 (30 °C) and -2.76 ± 0.2 (37 °C). The corresponding values for CAAUAGCAAUAUUACGCCUU are -2.1 ± 0.23 and -0.997 ± 0.24. The corresponding values for CAAUAGCAAUAUUACGCUAC are -3.14 ± 0.22 and -2.08 ± 0.26. In the case of CAAUAGCAAUAUUACGGCAC, the “self-splicing fitness (ln)” value reads like this: (30 °C) -3.57 ± 0.2; (37 °C) -3.06 ± 0.28. Regarding CAAUAGCAAUAUUACGGCAG, the “self-splicing fitness (ln)” value is -0.535 ± 0.078 (30 °C) and 0.191 ± 0.11 (37 °C). For CAAUAGCAAUAUUACGGCCG, the “self-splicing fitness (ln)” value reads like this: (30 °C) 0.102 ± 0.12; (37 °C) 0.341 ± 0.16. In the same order, the values of CAAUAGCAAUAUUACGGCCU are -2.69 ± 0.21 and -3.6 ± 0.39.

For CAAUAGCAAUAUUACGGCGC, the “self-splicing fitness (ln)” value (30 °C) was -3.81 ± 0.35 and the “self-splicing fitness (ln)” value (37 °C) is -1.37 ± 0.19. CAAUAGCAAUAUUACGGGCC: the “self-splicing fitness (ln)” value (37 °C) is -1.94 ± 0.29. On to CAAUAGCAAUAUUACGGGGG, for which the “self-splicing fitness (ln)” value runs as follows: (30 °C) -2.64 ± 0.19; (37 °C) -2.01 ± 0.15. In the same order, the values of CAAUAGCAAUAUUACGGGGU are -4.27 ± 0.39 and -2.48 ± 0.23. The corresponding values for CAAUAGCAAUAUUACGGUAU are -3.15 ± 0.15 and -2.42 ± 0.21. CAAUAGCAAUAUUACGUACC: the “self-splicing fitness (ln)” value reads like this: (30 °C) -4.73 ± 0.32; (37 °C) -3.09 ± 0.32. In the same order, the values of CAAUAGCAAUAUUACGUACU are -3.33 ± 0.13 and -1.8 ± 0.13.

Regarding CAAUAGCAAUAUUACGUGCC, the “self-splicing fitness (ln)” value by setting is: (30 °C) -2.98 ± 0.26; (37 °C) -3.02 ± 0.32. In the same order, the values of CAAUAGCAAUAUUACGUUUC are -4.35 ± 0.2 and -3.13 ± 0.19. Take CACAAGCAAUAUUACGAAGU: the “self-splicing fitness (ln)” value is, setting by setting: (30 °C) -3.68 ± 0.16; (37 °C) -1.43 ± 0.12. In the same order, the values of CACAAGCAAUAUUACGACUU are -3.49 ± 0.18 and -2.47 ± 0.21.

On to CACAAGCAAUAUUACGAGCA, for which the “self-splicing fitness (ln)” value was -2.96 ± 0.2 (30 °C) and -2.28 ± 0.17 (37 °C). In the same order, the values of CACAAGCAAUAUUACGAGGU are -3.59 ± 0.17 and -2.2 ± 0.18. For the sequence CACAAGCAAUAUUACGAUAC, the “self-splicing fitness (ln)” value reads like this: (30 °C) -3.58 ± 0.21; (37 °C) -2.5 ± 0.29. In the same order, the values of CACAAGCAAUAUUACGCGAA are -3.43 ± 0.17 and -2.44 ± 0.14.

The values are drawn from the supplement of paper PMC7877785.
